Patent US20170101470A1 (PROTHENA BIOSCIENCES, published 2017)

What was measured:
[1] = biological target: T1, human MCAM expressed on CHO cells (full length human MCAM gene) (human, UniProt P43121 24-646); assay: laminin/FACS assay: blocking of recombinant laminin 411 binding to hMCAM expressing CHO cells, relative to rodent 2120, Expt#1
T1 construct: also called hMCAM expressing CHO cells; CD146
T1 chain: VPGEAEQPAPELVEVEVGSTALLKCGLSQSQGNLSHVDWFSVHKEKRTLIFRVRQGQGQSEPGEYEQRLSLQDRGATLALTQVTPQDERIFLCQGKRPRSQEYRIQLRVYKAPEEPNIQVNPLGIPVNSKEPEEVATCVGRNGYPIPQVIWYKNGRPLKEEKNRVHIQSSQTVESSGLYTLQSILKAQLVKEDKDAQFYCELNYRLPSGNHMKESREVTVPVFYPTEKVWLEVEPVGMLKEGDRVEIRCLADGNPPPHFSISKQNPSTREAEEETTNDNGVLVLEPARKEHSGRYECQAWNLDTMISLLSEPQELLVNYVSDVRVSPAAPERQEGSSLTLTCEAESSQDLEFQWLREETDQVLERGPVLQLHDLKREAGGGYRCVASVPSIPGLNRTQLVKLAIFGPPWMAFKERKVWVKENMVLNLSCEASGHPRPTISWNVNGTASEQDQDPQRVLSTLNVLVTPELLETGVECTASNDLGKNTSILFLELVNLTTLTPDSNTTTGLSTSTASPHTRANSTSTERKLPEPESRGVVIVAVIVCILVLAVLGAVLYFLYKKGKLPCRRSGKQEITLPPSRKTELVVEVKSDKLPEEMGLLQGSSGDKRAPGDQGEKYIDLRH
Description: (§1) Following incubation for 30-45 minutes, the cells were washed and anti-laminin conjugated to AF650 (NovusBio) was added to detect the bound laminin. The cells were run on a flow cytometer to measure the laminin binding signal.

[2] = biological target: T1, human MCAM expressed on CHO cells (full …); assay: laminin/FACS assay: blocking of recombinant laminin 411 binding to hMCAM expressing CHO cells, relative to rodent 2120, Expt#2
Description: as §1

[3] = biological target: T2, recombinant hMCAM-His (human, UniProt P43121 24-559); assay: ForteBio Octet Red, antibody on anti-human Fc sensors, hMCAMHis analyte, 1:1 fit; affinity relative to rodent 2120, first Forte column
T2 chain: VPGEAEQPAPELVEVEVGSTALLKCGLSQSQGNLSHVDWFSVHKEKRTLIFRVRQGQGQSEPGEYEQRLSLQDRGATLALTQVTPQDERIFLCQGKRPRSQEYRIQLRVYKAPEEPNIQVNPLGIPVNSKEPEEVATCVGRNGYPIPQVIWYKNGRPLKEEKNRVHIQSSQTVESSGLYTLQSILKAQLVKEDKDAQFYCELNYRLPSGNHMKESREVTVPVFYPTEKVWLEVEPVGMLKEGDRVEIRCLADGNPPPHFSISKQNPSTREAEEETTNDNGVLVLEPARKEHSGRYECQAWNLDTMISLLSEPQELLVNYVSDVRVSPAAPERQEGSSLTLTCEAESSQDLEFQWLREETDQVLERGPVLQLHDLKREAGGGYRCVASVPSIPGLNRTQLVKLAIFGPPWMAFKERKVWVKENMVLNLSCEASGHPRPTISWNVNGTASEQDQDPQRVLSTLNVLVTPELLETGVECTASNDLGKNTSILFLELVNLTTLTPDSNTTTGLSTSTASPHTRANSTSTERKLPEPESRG
Description: The affinities were measured using the ForteBio Octet Red. Anti-human Fc sensors were used to capture the humanized antibodies, and several concentrations of hMCAMHis analyte were used to determine the affinity using a 1:1 fitting model.

[4] = biological target: T2, recombinant hMCAM-His; assay: competitive ELISA on coated hMCAM-His, competitor biotinylated rodent or chimeric 2120; IC50 relative to rodent 2120
Description: The apparent affinities of the humanized antibodies were compared to the parental rodent or chimeric antibody in a competitive ELISA according to the following protocol: ELISA plates were coated with recombinant hMCAM-His, and blocked with casein buffer to prevent non-specific binding. Biotinylated rodent or chimeric antibody was added at a subsaturating concentration, in the presence or absence of 3× increasing concentrations of unlabeled competitor (humanized antibody, rodent, or chimeric). After washing to remove unbound antibody, streptavidin HRP was added to allow detection of the biotinylated antibody. The ELISA was developed with TMB substrate and the OD450 was measured. The IC50 of the unlabeled competitor was determined using the GraphPad Prism5 software.

B1: humanized anti-MCAM antibody h2120_VH1 + h2120_VL1 (antibody, V domains shown)
VH: QVTLKESGPVLVKPTETLTLTCTVSGFSLTSNGVSWVRQPPGKALEWIAAISSGGTTYYNSAFKSRLTISRDTSKSQVVLTMTNMDPVDTATYYCARRYGYGWYFDFWGQGTLVTVSS
VL: DIQMTQSPSSLSASVGDRVTITCKASQNIYNSLAWYQQKPGKAPKVLIFNANSLQTGIPSRFSGSGSGTDFTLTISSLQPEDFATYYCQQFYSGYTFGQGTKLEIK
notes: Human IgG1 / human kappa; also called h2120VH1VL1; Standard VH + standard VL
- Fold over rodent (Blocking) [1]: 2 fold
- Fold over rodent (Blocking) [2]: 3.5 fold
- Fold over rodent (Forte) [3]: 8.8 fold
- Fold over rodent (ELISA) [4]: 3.1 fold

B2: humanized anti-MCAM antibody h2120_VH1 + h2120_VL2 (antibody, V domains shown)
VH: QVTLKESGPVLVKPTETLTLTCTVSGFSLTSNGVSWVRQPPGKALEWIAAISSGGTTYYNSAFKSRLTISRDTSKSQVVLTMTNMDPVDTATYYCARRYGYGWYFDFWGQGTLVTVSS
VL: DIQMTQSPSSLSASVGDRVTITCKASQNIYNSLAWYQQKPGKAPKVLIFNANSLQTGVPSRFSGSGSGTDFTLTISSLQPEDFATYYCQQFYSGYTFGQGTKLEIK
notes: Human IgG1 / human kappa; also called h2120VH1VL2; Standard VH + aggressive VL
- Fold over rodent (Blocking) [1]: 4.6 fold
- Fold over rodent (Blocking) [2]: 12.6 fold
- Fold over rodent (Forte) [3]: 10.8 fold
- Fold over rodent (ELISA) [4]: 3.1 fold

B3: humanized anti-MCAM antibody h2120_VH4 + h2120_VL3 (antibody, V domains shown)
VH: QVTLKESGPVLVKPTETLTLTCTVSGFSLTSQGVSWVRQPPGKALEWIAAISSGGTTYYNSAFKSRLTISRDTSKSQVVLTMTNMDPVDTATYYCARRYGYGWYFDFWGQGTLVTVSS
VL: DIQMTQSPSSLSASVGDRVTINCKASQNIYNSLAWYQQKPGKAPKVLIFNANSLQTGIPSRFSGSGSGTDFTLTISSLQPEDFATYYCQQFYSGYTFGQGTKLEIK
notes: Human IgG1 / human kappa; also called h2120VH4VL3; N-Q deamidate VH + conservative VL
- Fold over rodent (Blocking) [1]: 3.8 fold
- Fold over rodent (Blocking) [2]: 5.6 fold
- Fold over rodent (Forte) [3]: 17.4 fold
- Fold over rodent (ELISA) [4]: 5 fold
